# According to patent US20110112279A1 (Genentech, published 2011):
# B1: S4 IgG (full-length human IgG1; LPG3-humankappaG6 and LPG4-humanHC-S4), expressed in CHO cells (antibody, V domains shown)
# VH: EVQLVESGGGLVQPGGSLRLSCAASGFTISGSWIHWVRQAPGKGLEWVAWIAPYSGATDYADSVKGRFTISADTSKNTAYLQMNSLRAEDTAVYYCAREGGLYWVFDYWGQGTLVTVSS
# VL: DIQMTQSPSSLSASVGDRVTITCRASQDVSTAVAWYQQKPGKAPKLLIYSASFLYSGVPSRFSGSGSGTDFTLTISSLQPEDFATYYCQQSYTTPPTFGQGTKVEIKR
# notes: also called S4 antibody
# B2: human STOP-1 short form (L94-K243) with C-terminal His tag, baculovirus expressed (ligand, not shown: small tags and cut ends)
# chain: LRESFEESWTPNYKQCSWSSLNYGIDLGKIAECTFTKMRSNSALRVLFSGSLRLKCRNACCQRWYFTFNGAECSGPLPIEAIIYLDQGSPEMNSTINIHRTSSVEGLCEGIGAGLVDVAIWVGTCSDYPKGDASTGWNSVSRIIIEELPK
# notes: also called #94-243; L94-K243-His
# B3: human STOP-1, full length, C-terminal 8xHis tag (h762HIP; M1-K243-His), expressed in CHO-psgb cells (ligand)
# chain: SEIPKGKQKAQLRQREVVDLYNGMCLQGPAGVPGRDGSPGANGIPGTPGIPGRDGFKGEKGECLRESFEESWTPNYKQCSWSSLNYGIDLGKIAECTFTKMRSNSALRVLFSGSLRLKCRNACCQRWYFTFNGAECSGPLPIEAIIYLDQGSPEMNSTINIHRTSSVEGLCEGIGAGLVDVAIWVGTCSDYPKGDASTGWNSVSRIIIEELPKHHHHHHHH
# notes: The secreted protein purified from medium lacks the signal peptide; Light scattering: about 58% hexamer and 42% trimer; also called UNQ762; full length form
# B4: human STOP-1 delta-THD (residues 1-54, 94-243, plus His), expressed in CHO-psgb cells (ligand)
# chain: SEIPKGKQKAQLRQREVVDLYNGMLRESFEESWTPNYKQCSWSSLNYGIDLGKIAECTFTKMRSNSALRVLFSGSLRLKCRNACCQRWYFTFNGAECSGPLPIEAIIYLDQGSPEMNSTINIHRTSSVEGLCEGIGAGLVDVAIWVGTCSDYPKGDASTGWNSVSRIIIEELPKHHHHHHHH
# notes: also called ΔTHDh762HIP; M1-M54 fused to L94-K243-His
# B5: human STOP-1 E89-K243 with C-terminal His tag, baculovirus expressed (ligand, not shown: small tags and cut ends)
# chain: EKGECLRESFEESWTPNYKQCSWSSLNYGIDLGKIAECTFTKMRSNSALRVLFSGSLRLKCRNACCQRWYFTFNGAECSGPLPIEAIIYLDQGSPEMNSTINIHRTSSVEGLCEGIGAGLVDVAIWVGTCSDYPKGDASTGWNSVSRIIIEELPK
# notes: A mix of trimeric and hexameric complexes by light scattering; also called E89-K243-His; E89humanSTOP-1-pAcGP67B
# B6: human STOP-1 S31-K243 with C-terminal His tag, baculovirus expressed (ligand, not shown: small tags and cut ends)
# chain: SEIPKGKQKAQLRQREVVDLYNGMCLQGPAGVPGRDGSPGANGIPGTPGIPGRDGFKGEKGECLRESFEESWTPNYKQCSWSSLNYGIDLGKIAECTFTKMRSNSALRVLFSGSLRLKCRNACCQRWYFTFNGAECSGPLPIEAIIYLDQGSPEMNSTINIHRTSSVEGLCEGIGAGLVDVAIWVGTCSDYPKGDASTGWNSVSRIIIEELPK
# notes: Primarily trimeric by light scattering; also called S31-K243-His; S31humanSTOP-1-pAcGP67B
# B7: F5 F(ab)'2 displayed on M13 phage (V0350-4-F5) (other)
# light: SDIQMTQSPSSLSASVGDRVTITCRASQDVSTAVAWYQQKPGKAPKLLIYSASFLYSGVPSRFSGSGSGTDFTLTISSLQPEDFATYYCQQSYTTPPTFGQGTKVEIKRTVAAPSVFIFPPSDEQLKSGTASVVCLLNNFYPREAKVQWKVDNALQSGNSQESVTEQDSKDSTYSLSSTLTLSKADYEKHKVYACEVTHQGLSSPVTKSFNRGECGASSGMADPNRFRGKDLA
# heavy: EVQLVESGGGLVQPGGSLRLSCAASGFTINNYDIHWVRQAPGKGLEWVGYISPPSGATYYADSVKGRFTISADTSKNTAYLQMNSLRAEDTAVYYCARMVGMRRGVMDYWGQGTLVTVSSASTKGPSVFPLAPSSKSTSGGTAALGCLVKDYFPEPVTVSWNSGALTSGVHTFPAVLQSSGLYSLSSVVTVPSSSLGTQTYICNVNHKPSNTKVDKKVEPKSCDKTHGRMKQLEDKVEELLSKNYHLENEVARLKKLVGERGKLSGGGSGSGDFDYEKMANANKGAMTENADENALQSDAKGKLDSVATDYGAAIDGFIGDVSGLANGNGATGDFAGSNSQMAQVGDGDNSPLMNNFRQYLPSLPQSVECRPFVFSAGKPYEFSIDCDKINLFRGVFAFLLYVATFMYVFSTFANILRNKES
# notes: also called F5-F(ab)'2-phage; F(ab)'2-F5 phage
# B8: S7 F(ab)'2 displayed on M13 phage (V0350-4-S7) (other)
# light: B7 light
# heavy: AYAEVQLVESGGGLVQPGGSLRLSCAASGFTISGSDIHWVRQAPGKGLEWVGRISPYGGNTNYADSVKGRFTISADTSKNTAYLQMNSLRAEDTAVYYCARVGGLKLLFDYWGQGTLVTVSSASTKGPSVFPLAPSSKSTSGGTAALGCLVKDYFPEPVTVSWNSGALTSGVHTFPAVLQSSGLYSLSSVVTVPSSSLGTQTYICNVNHKPSNTKVDKKVEPKSCDKTHG
# notes: also called S7-F(ab)'2-phage; F(ab)'2-S7 phage
# B9: S16 F(ab)'2 displayed on M13 phage (V0350-4-S16) (other)
# light: B7 light
# heavy: AYAEVQLVESGGGLVQPGGSLRLSCAASGFTITNSDIHWVRQAPGKGLEWVATIYPYGGYTYYADSVKGRFTISADTSKNTAYLQMNSLRAEDTAVYYCARGGGMDGYVMDYWGQGTLVTVSSASTKGPSVFPLAPSSKSTSGGTAALGCLVKDYFPEPVTVSWNSGALTSGVHTFPAVLQSSGLYSLSSVVTVPSSSLGTQTYICNVNHKPSNTKVDKKVEPKSCDKTHG
# notes: also called S16-F(ab)'2-phage; F(ab)'2-S16 phage
# B10: S9 Fab displayed on M13 phage (V0350-2b-S9) (Fab)
# light: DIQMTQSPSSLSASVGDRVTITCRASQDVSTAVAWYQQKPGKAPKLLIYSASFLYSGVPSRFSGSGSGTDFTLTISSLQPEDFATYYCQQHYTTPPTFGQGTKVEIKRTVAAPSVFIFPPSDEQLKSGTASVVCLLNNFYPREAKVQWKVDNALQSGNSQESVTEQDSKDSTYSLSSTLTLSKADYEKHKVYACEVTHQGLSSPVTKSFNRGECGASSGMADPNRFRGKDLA
# heavy: AYAEVQLVESGGGLVQPGGSLRLSCAASGFTISNYGIHWVRQAPGKGLEWVGRISPSNGSTYYADSVKGRFTISADTSKNTAYLQMNSLRAEDTAVYYCAKCSVRFAYWGQGTLVTVSSASTKGPSVFPLAPSSKSTSGGTAALGCLVKDYFPEPVTVSWNSGALTSGVHTFPAVLQSSGLYSLSSVVTVPSSSLGTQTYICNVNHKPSNTKVDKKVEPKSCDKTHL
# notes: also called S9 (Fab)-phage
# B11: S4 Fab displayed on M13 phage (V0350-2b-S4) (Fab, V domains shown)
# VH: B1 VH
# VL: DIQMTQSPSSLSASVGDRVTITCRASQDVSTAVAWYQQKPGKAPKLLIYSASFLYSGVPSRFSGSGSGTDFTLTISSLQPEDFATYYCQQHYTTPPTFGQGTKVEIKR
# notes: Fab on phage: the heavy chain (VH-CH1) is fused to M13 cP3 and the light chain carries a gD tag; also called S4-Fab phage; S4 (Fab)-phage
# Biological target: B3
# Assay: blocking ELISA, legend of FIG. 22
# Method: First, 96-well Nunc Maxisorp plates were coated with full length human STOP-1 (2 ug/ml in PBS) at 4° C. overnight or at room temperature for 2 hours. The wells were blocked by adding 65 ul 1% BSA for 30 minutes followed by 40 ul 1% Tween20 for another 30 minutes. Next, the wells were washed with PBS—0.05% Tween20 5 times. Various concentrations of S4 IgG (in ELISA buffer) were incubated in the wells for 30 minutes at room temperature. Then, S4 (Fab)-phage, S7 (F(ab)′₂)-phage, S9 (Fab)-phage, S16 (F(ab)′₂)-phage or F5 (F(ab)′₂)-phage were added to different wells for 10 minutes at a concentration that would normally produce 90% binding capacity in the absence of the S4 IgG antibody. The wells were washed with PBS—0.05% Tween20 5 times.
# Binding was quantified by adding 75 ul/well of horse radish peroxidase (HRP)-conjugated anti-M13 antibody in PBS plus 0.5% BSA and 0.05% Tween20 at room temperature for 30 minutes (Sidhu et al., supra). […] Next, 100 ul/well of a 1:1 ratio of 3,3′,5,5′-tetramethylbenzidine (TMB) Peroxidase substrate and Peroxidase Solution B (H₂O₂) ((Kirkegaard-Perry Laboratories (Gaithersburg, Md.)) was added to the well. The reaction was stopped by adding 100 ul 1M Phosphoric Acid (H₃PO₄) ((Kirkegaard-Perry Laboratories (Gaithersburg, Md.)) to each well. The OD of the yellow color in each well was determined using a standard ELISA plate reader at 450 nm.
row,Binder,binding result
1,B1,binds

# Biological target: the molecule itself
# Assay: self-association; size exclusion chromatography with light scattering
# Method: Full length STOP-1-HIS proteins or various truncations thereof were expressed in SF9 baculovirus-infected cells or CHO cells as described above. The proteins were purified from the media by using Ni-NTA agarose beads as discussed above. The baculoviral-expressed proteins S31-K243-His, E89-K243-His, or L94-K243-His were loaded onto an 8 mm×300 mm Shodex KW802.5 size exclusion column and eluted with 100 mM NH₄HCO₃, 200 mM NH₄Cl pH7.8 at a flow rate of 1 ml/ml. CHO-psgb expressed full length proteins were loaded onto an 8 mm×300 mm Shodex KW804 size exclusion column and eluted with 25 mM sodium phosphate, 500 mM NaCl at a flow rate of 1 ml/ml. CHO-psgb expressed proteins, M1-M54 fused to L94-K243-His, were loaded onto an 8 mm×300 mm Shodex KW802.5 size exclusion column and eluted with 25 mM sodium phosphate, 500 mM NaCl at a flow rate of 1 ml/ml.
# The eluted protein was analyzed by an Agilent Model 1100 HPLC system with an Agilent multi wavelength detector (UV) connected to a Wyatt MiniDAWN laser light scattering (LS) instrument and a Wyatt Optilab differential refractometer (RI). The average molecular weight of the proteins or their aggregates in each peak was determined by selecting a peak and using the Zimm fitting method (Phillip J. Wyatt, (1993) Analytica Chimica Acta 272:1-40) with the Astra software package (Wyatt, USA). The percentage of aggregation was calculated from the integrated peak areas of the UV signal at 214 nm. See FIG. 6 and FIG. 7 for results.
row,Binder,binding result
1,B2,binds
2,B3,binds
3,B4,binds
4,B5,binds
5,B6,binds

# Biological target: B2
# Assay: solution competition phage ELISA (762 S/S), short form coated and short form as competitor; ND = not detectable
# Method: (§1) The wells were blocked by adding 65 ul 1% BSA for 30 minutes followed by 40 ul 1% Tween20 for another 30 minutes. Next, the wells were washed with PBS—0.05% Tween20 5 times. Various dilutions of F(ab) or F(ab)′₂ phage down to 0.1 O.D./ml in ELISA buffer (PBS—0.1% BSA and 0.05% Tween20) were added to the wells for 15 minutes at room temperature. The wells were then washed with PBS—0.05% Tween20 at least three times. 75 ul of HRP-conjugated anti-M13 antibody (Amersham, 1/5000 dilution with ELISA buffer) per well was added and incubated at room temperature for 30 minutes. The wells were washed again with PBS—0.05% Tween20 at least five times. Next, 100 ul/well of a 1:1 ratio of 3,3′,5,5′-tetramethylbenzidine (TMB) Peroxidase substrate and Peroxidase Solution B (H₂O₂) ((Kirkegaard-Perry Laboratories (Gaithersburg, Md.)) was added to the well and incubated for 5 minutes at room temperature. The reaction was stopped by adding 100 ul 1M Phosphoric Acid (H3PO₄) ((Kirkegaard-Perry Laboratories (Gaithersburg, Md.)) to each well. The optical density of the color in each well was determined using a standard ELISA plate reader at 450 nm. The dilutions of phage were plotted against the O.D. readings.
# Third, a competition ELISA was performed. 96-well Nunc Maxisorp plates were coated with full length or short form human STOP-1 (2 ug/ml in PBS) at 4° C. overnight or at room temperature for 2 hours. […]
row,Binder,binding result
1,B7,no binding (tested: 0.1 to 500 nM competitor)

# Biological target: B2
# Assay: solution competition phage ELISA (762 S/S): short form coated, phage pre-incubated with short form STOP-1 in solution; IC50 is the STOP-1 concentration
# Method: as §1
# (§2) Third, a competition ELISA was performed. 96-well Nunc Maxisorp plates were coated with full length or short form human STOP-1 (2 ug/ml in PBS) at 4° C. overnight or at room temperature for 2 hours. The wells were blocked by adding 65 ul 1% BSA for 30 minutes followed by 40 ul 1% Tween20 for another 30 minutes. The wells were washed with PBS—0.05% Tween20 5 times. […] The unbound phage was assayed by transferring 75 ul of the well mixture to second 96-well plate pre-coated with full length or short form human STOP-1 and incubating at room temperature for 15 minutes. The wells of the second plate were washed with PBS—0.5% Tween20 at least three times. 75 ul of HRP-conjugated anti-M13 antibody ( 1/5000 dilution with ELISA buffer) per well was added and incubated at room temperature for 30 minutes. The wells were washed again with PBS—0.05% Tween20 at least five times.
row,Binder,IC50 [nM]
1,B8,35
2,B9,114
3,B10,> 1000
4,B11,3

# Biological target: B3
# Assay: solution competition phage ELISA (762 S/F): short form coated, phage pre-incubated with full length STOP-1 in solution; IC50 is the STOP-1 concentration
# Method: as §1, §2
row,Binder,IC50 [nM]
1,B8,4.7
2,B7,1000
3,B10,331
4,B11,719

# Biological target: B3
# Assay: solution competition phage ELISA (762 F/F): full length coated, phage pre-incubated with full length STOP-1 in solution; IC50 is the STOP-1 concentration
# Method: as §1, §2
row,Binder,IC50 [nM]
1,B8,2.7
2,B9,32
3,B11,0.9
